Assay results taken from the Human Domainome abundance scans (Beltran et al. 2025).
± gives the uncertainty stated by the source.

B1: Nucleolar transcription factor 1, residues 408 to 469; numbered along this chain, P17480 (parent)
chain: KRPVSAMFIFSEEKRRQLQEERPELSESELTRLLARMWNDLSEKKKAKYKAREAALKAQSER

Variants of: B1
Test: abundance fitness (aPCA) (normalised: wild type 0, dead -1); higher = more abundant; growth selection in yeast, the domain comes from the species named
Conditions: Homo sapiens

Point of comparison: KRPVSAMFIFSEEKRRQLQEERPELSESELTRILARMWNDLSEKKKAKYKAREAALKAQSER [L33I], abundance fitness 0.016 ± 0.088. Against it:
- KRPVSAMFIFSEEKRRQLQEERPELSESELTRSLARMWNDLSEKKKAKYKAREAALKAQSER [L33S] — lower, -0.188 ± 0.07
- KRPVSAMFIFSEEKRRQLQEERPELSESELTRRLARMWNDLSEKKKAKYKAREAALKAQSER [L33R] — lower, -0.159 ± 0.055
- KRPVSAMFIFSEEKRRQLQEERPELSESELTRWLARMWNDLSEKKKAKYKAREAALKAQSER [L33W] — lower, -0.315 ± 0.086
- KRPVSAMFIFSEEKRRQLQEERPELSESELTRPLARMWNDLSEKKKAKYKAREAALKAQSER [L33P] — lower, -1.22 ± 0.19
- KRPVSAMFIFSEEKRRQLQEERPELSESELTRMLARMWNDLSEKKKAKYKAREAALKAQSER [L33M] — within error, -0.023 ± 0.17
- KRPVSAMFIFSEEKRRQLQEERPELSESELTRELARMWNDLSEKKKAKYKAREAALKAQSER [L33E] — within error, 0.006 ± 0.089
- KRPVSAMFIFSEEKRRQLQEERPELSESELTRDLARMWNDLSEKKKAKYKAREAALKAQSER [L33D] — lower, -0.149 ± 0.069
- KRPVSAMFIFSEEKRRQLQEERPELSESELTRVLARMWNDLSEKKKAKYKAREAALKAQSER [L33V] — within error, -0.067 ± 0.046
- KRPVSAMFIFSEEKRRQLQEERPELSESELTRCLARMWNDLSEKKKAKYKAREAALKAQSER [L33C] — within error, -0.1 ± 0.1
- KRPVSAMFIFSEEKRRQLQEERPELSESELTRHLARMWNDLSEKKKAKYKAREAALKAQSER [L33H] — within error, -0.02 ± 0.13
- KRPVSAMFIFSEEKRRQLQEERPELSESELTRKLARMWNDLSEKKKAKYKAREAALKAQSER [L33K] — within error, -0.154 ± 0.085
- KRPVSAMFIFSEEKRRQLQEERPELSESELTRALARMWNDLSEKKKAKYKAREAALKAQSER [L33A] — within error, -0.118 ± 0.052
- KRPVSAMFIFSEEKRRQLQEERPELSESELTRQLARMWNDLSEKKKAKYKAREAALKAQSER [L33Q] — within error, -0.092 ± 0.083
- KRPVSAMFIFSEEKRRQLQEERPELSESEDTRLLARMWNDLSEKKKAKYKAREAALKAQSER [L30D] — lower, -0.65 ± 0.27
- KRPVSAMFIFSEEKRRQLQEERPELSESEPTRLLARMWNDLSEKKKAKYKAREAALKAQSER [L30P] — lower, -1.1 ± 0.17
- KRPVSAMFIFSEEKRRQLQEERPELSESEFTRLLARMWNDLSEKKKAKYKAREAALKAQSER [L30F] — lower, -0.327 ± 0.1
- KRPVSAMFIFSEEKRRQLQEERPELSESEGTRLLARMWNDLSEKKKAKYKAREAALKAQSER [L30G] — lower, -0.254 ± 0.047
- KRPVSAMFIFSEEKRRQLQEERPELSESETTRLLARMWNDLSEKKKAKYKAREAALKAQSER [L30T] — within error, -0.118 ± 0.097
- KRPVSAMFIFSEEKRRQLQEERPELSESEQTRLLARMWNDLSEKKKAKYKAREAALKAQSER [L30Q] — within error, -0.032 ± 0.074
- KRPVSAMFIFSEEKRRQLQEERPELSESEMTRLLARMWNDLSEKKKAKYKAREAALKAQSER [L30M] — within error, -0.043 ± 0.059
- KRPVSAMFIFSEEKRRQLQEERPELSESEHTRLLARMWNDLSEKKKAKYKAREAALKAQSER [L30H] — lower, -0.232 ± 0.12
- KRPVSAMFIFSEEKRRQLQEERPELSESEITRLLARMWNDLSEKKKAKYKAREAALKAQSER [L30I] — within error, -0.171 ± 0.13
- KRPVSAMFIFSEEKRRQLQEERPELSESENTRLLARMWNDLSEKKKAKYKAREAALKAQSER [L30N] — lower, -0.303 ± 0.082
- KRPVSAMFIFSEEKRRQLQEERPELSESEWTRLLARMWNDLSEKKKAKYKAREAALKAQSER [L30W] — lower, -0.177 ± 0.042
- KRPVSAMFIFSEEKRRQLQEERPELSESEYTRLLARMWNDLSEKKKAKYKAREAALKAQSER [L30Y] — within error, -0.099 ± 0.095
- KRPVSAMFIFSEEKRRQLQEERPELSESERTRLLARMWNDLSEKKKAKYKAREAALKAQSER [L30R] — within error, -0.108 ± 0.043
- KRPVSAMFIFSEEKRRQLQEERPELSESESTRLLARMWNDLSEKKKAKYKAREAALKAQSER [L30S] — lower, -0.178 ± 0.069
- KRPVSAMFIFSEEKRRQLQEERPELSESECTRLLARMWNDLSEKKKAKYKAREAALKAQSER [L30C] — within error, -0.078 ± 0.084
- KRPVSAMFIFSEEKRRQLQEERPELSESEKTRLLARMWNDLSEKKKAKYKAREAALKAQSER [L30K] — within error, -0.103 ± 0.076
- KRPVSAMFIFSEEKRRQLQEERPELSESEETRLLARMWNDLSEKKKAKYKAREAALKAQSER [L30E] — lower, -0.227 ± 0.09
- KRPVSAMFIFSEEKRRQLQEERPELSETELTRLLARMWNDLSEKKKAKYKAREAALKAQSER [S28T] — within error, -0.076 ± 0.056
- KRPVSAMFIFSEEKRRQLQEERPELSEVELTRLLARMWNDLSEKKKAKYKAREAALKAQSER [S28V] — within error, -0.089 ± 0.057
- KRPVSAMFIFSEEKRRQLQEERPELSEYELTRLLARMWNDLSEKKKAKYKAREAALKAQSER [S28Y] — within error, -0.085 ± 0.057
- KRPVSAMFIFSEEKRRQLQEERPELSESELTRLAARMWNDLSEKKKAKYKAREAALKAQSER [L34A] — lower, -0.192 ± 0.053
- KRPVSAMFIFSEEKRRQLQEERPELSESELTRLCARMWNDLSEKKKAKYKAREAALKAQSER [L34C] — within error, -0.049 ± 0.11
- KRPVSAMFIFSEEKRRQLQEERPELSESELTMLLARMWNDLSEKKKAKYKAREAALKAQSER [R32M] — within error, -0.105 ± 0.083
- KRPVSAMFIFSEEKRRQLQEERPELSESELTKLLARMWNDLSEKKKAKYKAREAALKAQSER [R32K] — within error, 0.021 ± 0.048
- KRPVSAMFIFSEEKRRQLQEERPELSESELTSLLARMWNDLSEKKKAKYKAREAALKAQSER [R32S] — within error, 0.022 ± 0.066
- KRPVSAMFIFSEEKRRQLQEERPELSESELTALLARMWNDLSEKKKAKYKAREAALKAQSER [R32A] — within error, -0.033 ± 0.048
- KRPVSAMFIFSEEKRRQLQEERPELSESELTDLLARMWNDLSEKKKAKYKAREAALKAQSER [R32D] — within error, -0.058 ± 0.18
- KRPVSAMFIFSEEKRRQLQEERPELSESELTLLLARMWNDLSEKKKAKYKAREAALKAQSER [R32L] — within error, -0.018 ± 0.044
- KRPVSAMFIFSEEKRRQLQEERPELSESELTPLLARMWNDLSEKKKAKYKAREAALKAQSER [R32P] — within error, -0.116 ± 0.073
